Experiment [1] addresses human IR FnIII-1 domain (residues 460-596; C468A, C524A, DFR496-498AAA) (human) (UniProt P06213). Put plainly: ITC. On the technique in general: In ITC the heat of successive injections is recorded.
Experiment [2] concerns the target human IR L1-CR-L2/α-CT domains (human) (UniProt P06213). The experiment in a line: ITC.

For “insulin WT (ΔB30; desB30 human insulin) (ligand)”, the figures for the Kd in experiment [1] and in experiment [2] were 760 nM and 90 nM, respectively.

The term Kd denotes the constant that tells how readily two partners part at equilibrium. Lower therefore signals a tighter complex.

These data come from paper PMC9115778.
